T1: Spt7 (S. cerevisiae, UniProt P35177 1-1332)
T1 construct: Spt7, S. cerevisiae, second largest SAGA subunit (SPT module); source: endogenous, in the native SAGA complex purified from fermented S. cerevisiae cells
T1 sequence (looked up): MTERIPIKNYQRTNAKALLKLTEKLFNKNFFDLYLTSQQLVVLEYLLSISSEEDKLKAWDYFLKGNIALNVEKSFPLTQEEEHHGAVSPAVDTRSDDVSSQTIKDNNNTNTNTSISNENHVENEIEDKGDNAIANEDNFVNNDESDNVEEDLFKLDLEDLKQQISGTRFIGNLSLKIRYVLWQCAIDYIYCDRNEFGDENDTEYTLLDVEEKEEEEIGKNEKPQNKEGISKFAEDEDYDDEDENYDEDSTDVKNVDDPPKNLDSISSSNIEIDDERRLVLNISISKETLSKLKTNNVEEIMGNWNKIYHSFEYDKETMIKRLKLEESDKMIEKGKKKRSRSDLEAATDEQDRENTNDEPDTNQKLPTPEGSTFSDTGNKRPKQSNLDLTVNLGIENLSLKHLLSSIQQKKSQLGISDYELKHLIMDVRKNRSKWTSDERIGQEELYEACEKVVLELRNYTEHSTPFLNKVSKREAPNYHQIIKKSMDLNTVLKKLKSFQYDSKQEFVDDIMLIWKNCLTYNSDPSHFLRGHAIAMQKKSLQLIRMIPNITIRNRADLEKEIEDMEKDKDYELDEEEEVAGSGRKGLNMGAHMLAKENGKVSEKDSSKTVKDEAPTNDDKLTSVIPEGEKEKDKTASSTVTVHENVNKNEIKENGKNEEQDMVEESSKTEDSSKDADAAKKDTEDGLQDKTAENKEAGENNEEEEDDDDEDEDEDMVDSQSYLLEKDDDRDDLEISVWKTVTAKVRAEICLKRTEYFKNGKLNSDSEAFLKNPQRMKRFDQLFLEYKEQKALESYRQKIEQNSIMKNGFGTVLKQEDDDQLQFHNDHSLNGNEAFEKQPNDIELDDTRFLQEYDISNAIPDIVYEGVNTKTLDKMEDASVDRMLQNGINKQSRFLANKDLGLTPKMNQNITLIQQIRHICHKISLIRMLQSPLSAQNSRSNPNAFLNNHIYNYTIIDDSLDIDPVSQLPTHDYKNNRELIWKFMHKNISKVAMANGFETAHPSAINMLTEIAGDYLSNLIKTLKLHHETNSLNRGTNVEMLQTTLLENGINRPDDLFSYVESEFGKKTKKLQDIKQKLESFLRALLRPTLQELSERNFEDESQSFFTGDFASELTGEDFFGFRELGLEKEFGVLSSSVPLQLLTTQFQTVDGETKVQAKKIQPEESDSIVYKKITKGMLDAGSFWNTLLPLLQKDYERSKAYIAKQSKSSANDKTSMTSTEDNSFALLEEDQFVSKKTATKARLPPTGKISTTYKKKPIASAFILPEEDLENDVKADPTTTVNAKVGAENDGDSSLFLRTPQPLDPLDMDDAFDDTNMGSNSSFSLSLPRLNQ

B1: Ada3 (natural protein, S. cerevisiae, UniProt P32494 1-702, looked up)
chain: MPRHGRRGKLPKGEKLPKKEGGDNTPSKLLSSMLKTLDLTFERDIGMLNGKSVRSIPNKKTLLELQSQLDSLNEILGTIARGDQETIEALRKIRDSKNEKQANDEKQETSNADGQHESSTATEETNIIDKGVQSPPKPPPSNEISGTIENDVESIKQAADNMAKEEINEDKDLQVHRDQPREKRPFDSETENRATENENTQRPDNKKQKIDVDKMENDPTVKNPKSEFVVSQTLPRAAAALGLFNEEGLESTGEDFLKKKYNVASYPTNDLKDLLPGELPDMDFSHPKPTNQIQFNTFLAFVENFFKDLSDDNLKFLKMKYIIPDSLQFDKTYDPEVNPFIIPKLGPLYTDVWFKDENDKNSAYKKPSPYSNDASTILPKKSANELDDNALESGSISCGPLLSRLLSAVLKDDNDKSELQSSKIIRDGGLPRTGGEDDIQSFRNNNNDTVDMTLSQENGPSVQTPDNDIDEEASFQAKLAENKGSNGGTTSTLPQQIGWITNGINLDYPTFEERLKRELKYVGIYMNLPKDENNPNSDDPDWVTGREDDEISAELRELQGTLKQVTKKNQKRKAQLIPLVERQLAWQEYSSILEDLDKQIDQAYVKRIRVPKKRKKHHTAASNNVNTGTTSQIAQQKAANSSLKSLLDKRQRWINKIGPLFDKPEIMKRIPNESVFKDMDQEEDEDEADVFAQNTNKDVELN
notes: Ada3, S. cerevisiae, SAGA subunit (HAT module); source: endogenous, in the native SAGA complex purified from fermented S. cerevisiae cells
B2: Ada2 (natural protein, S. cerevisiae, UniProt Q02336 1-434, looked up)
chain: MSNKFHCDVCSADCTNRVRVSCAICPEYDLCVPCFSQGSYTGKHRPYHDYRIIETNSYPILCPDWGADEELQLIKGAQTLGLGNWQDIADHIGSRGKEEVKEHYLKYYLESKYYPIPDITQNIHVPQDEFLEQRRHRIESFRERPLEPPRKPMASVPSCHEVQGFMPGRLEFETEFENEAEGPVKDMVFEPDDQPLDIELKFAILDIYNSRLTTRAEKKRLLFENHLMDYRKLQAIDKKRSKEAKELYNRIKPFARVMTAQDFEEFSKDILEELHCRARIQQLQEWRSNGLTTLEAGLKYERDKQARISSFEKFGASTAASLSEGNSRYRSNSAHRSNAEYSQNYSENGGRKKNMTISDIQHAPDYALLSNDEQQLCIQLKILPKPYLVLKEVMFRELLKTGGNLSKSACRELLNIDPIKANRIYDFFQSQNWM
notes: Ada2, S. cerevisiae, SAGA subunit (HAT module); source: endogenous, in the native SAGA complex purified from fermented S. cerevisiae cells
B3: Taf6 (natural protein, S. cerevisiae, UniProt P53040 1-516, looked up)
chain: MSTQQQSYTIWSPQDTVKDVAESLGLENINDDVLKALAMDVEYRILEIIEQAVKFKRHSKRDVLTTDDVSKALRVLNVEPLYGYYDGSEVNKAVSFSKVNTSGGQSVYYLDEEEVDFDRLINEPLPQVPRLPTFTTHWLAVEGVQPAIIQNPNLNDIRVSQPPFIRGAIVTALNDNSLQTPVTSTTASASVTDTGASQHLSNVKPGQNTEVKPLVKHVLSKELQIYFNKVISTLTAKSQADEAAQHMKQAALTSLRTDSGLHQLVPYFIQFIAEQITQNLSDLQLLTTILEMIYSLLSNTSIFLDPYIHSLMPSILTLLLAKKLGGSPKDDSPQEIHEFLERTNALRDFAASLLDYVLKKFPQAYKSLKPRVTRTLLKTFLDINRVFGTYYGCLKGVSVLEGESIRFFLGNLNNWARLVFNESGITLDNIEEHLNDDSNPTRTKFTKEETQILVDTVISALLVLKKDLPDLYEGKGEKVTDEDKEKLLERCGVTIGFHILKRDDAKELISAIFFGE
notes: Taf6, S. cerevisiae, SAGA subunit (TAF module), ~58 kDa as printed; source: endogenous, in the native SAGA complex purified from fermented S. cerevisiae cells
B4: Spt8 (natural protein, S. cerevisiae, UniProt P38915 1-602, looked up)
chain: MDEVDDILINNQVVDDEEDDEEMLSGLENDSKQDLEGNDDGGEDEEDDDDDDEDDDDDEDEREDDDEQEDDDGEDDAARMDKTATPTNEHQHDEQKAAAAGAGGAGDSGDAVTKIGSEDVKLSDVDGGVGSREASSSTHEASANGEVYEYYKHMLNAAQIADSYNIYPTAAIPIQTHVNALAVSRGLKYLFLGGSDGYIRKYDLLNTLEGKLSLTILQKHSLAESIQNAGILQSYWENEIPQKKSEMKLSANKTDYEPKVSPVHSLEVQSECLFILSGLQNGGITMQGVRYMEGSIAHYFKGRNGHTQIVNILRLNGQEDRFLSGSWDKRLLEWDLQTGDIVNEFKKSRSELSSLEMRPLYSSVDVSGNVNSGKENENADDDMDSLFGDEDEDEKQDAGNEPVETGDGSNGEENKEQISEESLNIVYDESVFMTSGLNGSVHIWDRRMTQSPALSLERGAGVPPWCLSACWGVDGDHVYAGRRNACVEQFDLKMPSKPIHNLKLPSISGPVSCVKAMPNNKHLLCASRDNIRLYNVEIAVDASNSTTKSSKVPFLIVPGHHGGIISNLYLDPTSRFIISTSGNRGWQGNSTDTTLIYDIDLE
notes: Spt8, S. cerevisiae, SAGA subunit (SPT module), ~66.2 kDa as printed; source: endogenous, in the native SAGA complex purified from fermented S. cerevisiae cells

The target in the assay is T1, Spt7. Briefly: cross-linking; chemical cross-linking of proteins coupled with mass spectrometry (CXMS) on the purified native SAGA complex; 139 unique inter- and 184 unique intra-subunit cross-linking pairs. The following applies: both partners purified.
As for B1, the binding result is “binds”.
In the case of B2 it was “binds”; in that of B3, “binds”; in that of B4, “binds”.

Values taken from publication PMC6502868, “Architecture of Saccharomyces cerevisiae SAGA complex” (Cell Discovery, 2019).
